Data published in US20060052582A1, “Identification of inhibitors of mitosis” (priority 2002, published 2006).

Test system: Nek6
Experiment: Activity and phosphorylation of GST Nek6 coexpressed with Nercc1 noncatalytic fragment in HEK293 cells
Format: cell-based, human
Method: GST Nek6 was coexpressed with increasing quantities of FLAG Nercc1 (347-979). The kinase activity of GST Nek6 was measured using MBP as substrate.
GST Nek6 was cotransfected in HEK293 cells with increasing amounts of FLAG Nercc1 (347-979), and immunoblots of the extracts were carried out using the indicated antibodies.

Sequence of Nek6 (Q9HC98 whole entry, the tested form may be a part): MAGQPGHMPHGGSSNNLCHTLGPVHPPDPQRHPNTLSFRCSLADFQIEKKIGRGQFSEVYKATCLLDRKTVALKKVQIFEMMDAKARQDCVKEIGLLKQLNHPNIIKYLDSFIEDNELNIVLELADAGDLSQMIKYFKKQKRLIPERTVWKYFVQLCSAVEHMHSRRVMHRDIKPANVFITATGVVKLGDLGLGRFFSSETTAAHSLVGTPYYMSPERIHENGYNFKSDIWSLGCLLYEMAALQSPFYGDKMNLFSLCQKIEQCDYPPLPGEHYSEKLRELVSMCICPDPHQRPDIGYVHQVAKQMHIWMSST

B1: FLAG Nercc1 (347-979): FLAG-tagged polypeptide consisting of Nercc1 amino acids 347-979 of SEQ ID NO:2 (protein, listed as Homo sapiens)
chain: SEVYIWGGGKSTPQKLDVIKSGCSARQVCAGNTHFAVVTVEKELYTWVNMQGGTKLHGQLGHGDKASYRQPKHVEKLQGKAIHQVSCGDDFTVCVTDEGQLYAFGSDYYGCMGVDKVAGPEVLEPMQLNFFLSNPVEQVSCGDNHVVVLTRNKEVYSWGCGEYGRLGLDSEEDYYTPQKVDVPKALIIVAVQCGCDGTFLLTQSGKVLACGLNEFNKLGLNQCMSGIINHEAYHEVPYTTSFTLAKQLSFYKIRTIAPGKTHTAAIDERGRLLTFGCNKCGQLGVGNYKKRLGINLLGGPLGGKQVIRVSCGDEFTIAATDDNHIFAWGNGGNGRLAMTPTERPHGSDICTSWPRPIFGSLHHVPDLSCRGWHTILIVEKVLNSKTIRSNSSGLSIGTVFQSSSPGGGGGGGGGEEEDSQQESETPDPSGGFRGTMEADRGMEGLISPTEAMGNSNGASSSCPGWLRKELENAEFIPMPDSPSPLSAAFSESEKDTLPYEELQGLKVASEAPLEHKPQVEASSPRLNPAVTCAGKGTPLTPPACACSSLQVEVERLQGLVLKCLAEQQKLQQENLQIFTQLQKLNKKLEGGQQVGMHSKGTQTAKEEMEMDPKPDLDSDSGCLLGTDSCRPSL
modifications: FLAG tag
effect on Nek6 activation loop phosphorylation (cotransfected in HEK293 cells): suppresses | effect on kinase activity of coexpressed GST Nek6 (overexpression in vivo, MBP as substrate): inhibited
